PMC4038516, “Crystal Structure of Penicillin-Binding Protein 3 (PBP3) from Escherichia coli” (PLoS ONE, 2014)

B1: PBP3_(88–165), Val88-Ser165 subdomain of Escherichia coli PBP3, strep-tag removed (domain or fragment, UniProt P0AD68 88-165, looked up)
chain: VKAIWADPKEVHDAGGISVGDRWKALANALNIPLDQLSARINANPKGRFIYLARQVNPDMADYIKKLKLPGIHLREES
notes: The tag is said to be removed before crystallization; Residues of the vector may remain at the N-terminus after the tag was removed; A selenomethionine form was used for phasing only; also called PBP3 Val88-Ser165 subdomain; source: E. coli C41(DE3) with pDML2042 (pET-52b(+)), purified (Strep-Tactin column), strep-tag removed; not shown: Strep-tag, N-terminal, cleaved
B2: PBP3_(57–577), soluble periplasmic form of Escherichia coli penicillin-binding protein 3 (domain or fragment, UniProt P0AD68 57-577, looked up)
chain: GDMRSLRVQQVSTSRGMITDRSGRPLAVSVPVKAIWADPKEVHDAGGISVGDRWKALANALNIPLDQLSARINANPKGRFIYLARQVNPDMADYIKKLKLPGIHLREESRRYYPSGEVTAHLIGFTNVDSQGIEGVEKSFDKWLTGQPGERIVRKDRYGRVIEDISSTDSQAAHNLALSIDERLQALVYRELNNAVAFNKAESGSAVLVDVNTGEVLAMANSPSYNPNNLSGTPKEAMRNRTITDVFEPGSTVKPMVVMTALQRGVVRENSVLNTIPYRINGHEIKDVARYSELTLTGVLQKSSNVGVSKLALAMPSSALVDTYSRFGLGKATNLGLVGERSGLYPQKQRWSDIERATFSFGYGLMVTPLQLARVYATIGSYGIYRPLSITKVDPPVPGERVFPESIVRTVVHMMESVALPGGGGVKAAIKGYRIAIKTGTAKKVGPDGRYINKYIAYTAGVAPASQPRFALVVVINDPQAGKYYGGAVSAPVFGAIMGGVLRTMNIEPDALTTGDKNEFV
notes: the ftsI gene encodes 588 residues and 11 C-terminal residues are removed by proteolytic cleavage; No tag is mentioned; also called FtsI; periplasmic domain of PBP3; source: E. coli W3110M (plasmid pDML232, with pDML237 for SecB), purified (S-Sepharose twice, Superdex 200)

Assays:
[1] = target: the molecule itself; assay: dynamic light scattering + other: static light scattering; PBP3_(88–165), batch mode, 20°C, buffer and concentration as for crystallogenesis (7.5 mg/ml, 0.15 M NaCl, 0.1 M Tris pH 8, 1 mM EDTA)
[2] = target: the molecule itself; assay: dynamic light scattering + other: static light scattering; PBP3_(57–577), batch mode, 20°C, buffer and concentration as for crystallogenesis (18 mg/ml, 0.5 M NaCl, 20 mM Tris pH 8)

Row | Protein | stoichiometry N [1] | stoichiometry N [2]
1 | B1 | 2 | –
2 | B2 | – | 2
